The target of assay [1] is T1, Large subunit (LSU) of Synechococcus elongatus PCC7942 Rubisco (Synechococcus elongatus PCC7942, UniProt Q31NB3 1-472).
T1 construct: also called cyanobacterial LSU; Se LSU
The experiment in a line: native PAGE with Coomassie stain and immunoblots.

For assay [2], the target named is T2, Rubisco from the cyanobacterium Synechococcus elongatus PCC7942 (hexadecameric holoenzyme of eight LSU and … (Synechococcus elongatus PCC7942, UniProt Q31NB3 1-472; Q31NB2 1-111).
T2 construct: also called Se7942 Rubisco; cyanobacterial Rubisco
Nature of the assay: quantitative immunoblots of SeLSM35 leaf homogenates against purified protein standards. From the text:
SDS page, immunoblot and determination of CcmM35/Rubisco content. The crude leaf homogenates used in the carboxylase activity measurements were separated by SDS-PAGE using 4-20% polyacrylamide gradient gels (ThermoScientific, UK). For each sample, the same amount of protein, as determined by Bradford assay, was loaded onto the gel. After electrophoresis, the resolved proteins were transferred to a nitrocellulose membrane (Hybond-C Extra from GE Healthcare Life Sciences) using a western blot apparatus. The nitrocellulose membranes were immunoblotted using one of four primary polyclonal antibodies raised against: cyanobacterial (SePCC6301) Rubisco; tobaccoRubisco; the small subunit of tobacco Rubisco; and CcmM from Se PCC7942. The primary polyclonal antibody to detect CcmM35 was generated in rabbit with His-tagged CcmM58 protein purified from E. coli (Cambridge Research Biochemicals, UK) and used at a dilution of 1:500 in the immunoblots and from 1:500 to 1:2,000 for immunogold labelling, and was highly specific for CcmM (FIG. 2a). The primary antibodies were visualized by means of a secondary goat anti-rabbit peroxidase-conjugated antibody (Sigma). The absolute and relative content of Synechococcus Rubisco and CcmM35 in SeLSM35 leaves were determined using immunoblots with antibodies against CcmM and cyanobacterial Rubisco. […]
For orientation: A western blot detects proteins with antibodies after separation by electrophoresis.

These results are taken from patent publication US20180298401A1 (CORNELL UNIVERSITY, published 2018).

B1: Small subunit (SSU) of Synechococcus elongatus PCC7942 Rubisco (enzyme, UniProt Q31NB2 1-111, looked up)
chain: MSMKTLPKERRFETFSYLPPLSDRQIAAQIEYMIEQGFHPLIEFNEHSNPEEFYWTMWKLPLFDCKSPQQVLDEVRECRSEYGDCYIRVAGFDNIKQCQTVSFIVHRPGRY
notes: also called cyanobacterial SSU; Se-rbcS product
Regarding B1, the binding result in assay [1] is on record as “binds”.

B2: CcmM35, internal carboxysomal protein of Synechococcus elongatus PCC7942 (other, UniProt Q03513-2 1-324, looked up)
chain: MSAYNGQGRLSSEVITQVRSLLNQGYRIGTEHADKRRFRTSSWQPCAPIQSTNERQVLSELENCLSEHEGEYVRLLGIDTNTRSRVFEALIQRPDGSVPESLGSQPVAVASGGGRQSSYASVSGNLSAEVVNKVRNLLAQGYRIGTEHADKRRFRTSSWQSCAPIQSSNERQVLAELENCLSEHEGEYVRLLGIDTASRSRVFEALIQDPQGPVGSAKAAAAPVSSATPSSHSYTSNGSSSSDVAGQVRGLLAQGYRISAEVADKRRFQTSSWQSLPALSGQSEATVLPALESILQEHKGKYVRLIGIDPAARRRVAELLIQKP
notes: domain: CcmM35; CcmM35 lacks the amino-terminal domain; Untagged as expressed in the SeLSM35 tobacco line; also called Se-ccmM35 product
Regarding B2, the “stoichiometry of CcmM35 per Rubisco holoenzyme” value in assay [2] is ~4.5 CcmM35 per Rubisco holoenzyme.
